Results from patent publication US20240301038A1 (ATRECA, published 2024).

Target: SARS-CoV-2 Spike S1 subunit (Sino Biological) (SARS-CoV-2, UniProt P0DTC2 16-685)

B1: AB-009270 (antibody, V domains shown)
VH: QMQLVQSGPEVKKPGTSVKVSCKASGFTFTSSAMQWVRQARGQRLEWIGWIVVGSGNTNYAQKFQERVTITRDMSTSTAYMELSSLRSEDTAVYYCAVNYCSSTSCYDAFDIWGQGTMVTVSS
VL: not shown
koff: 0.000208 s⁻¹
kon: 69000 M⁻¹ s⁻¹

B2: AB-009760 (antibody, V domains shown)
VH: EVQLVQSGAEVKKPGESLKISCKGSGYSFTSYWIGWVRQMPGKGLEWMGIIYPGDSDTRYSPSFQGQVTISADKSISTAYLQWSSLKASDTAMYYCARSRSSDYFDYWGQGTLVTVSS
VL: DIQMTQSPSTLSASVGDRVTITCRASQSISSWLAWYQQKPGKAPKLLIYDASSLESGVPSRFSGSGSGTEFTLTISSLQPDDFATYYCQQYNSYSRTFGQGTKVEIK
kon: 64100 M⁻¹ s⁻¹
